# US8624002B2, “Prostaglandin E2 binding proteins and uses thereof” (AbbVie, Inc., priority 2008, dated 2014)
# Legend:
# [1] = Biotin-PGE2 competition ELISA (prostaglandin selectivity); format: binding
# Procedure: Competition enzyme linked immunosorbent assays were performed to determine prostaglandin binding specificity for antibodies that bind prostaglandin E2, according to at least one of the two following methods.
# ELISA plates (Costar 3369, Corning, N.Y.) were coated with 50 μl/well of anti-host Fc IgG (Sigma, St. Louis, Mo.) at 2 μg/ml in PBS (Invitrogen, Carlsbad, Calif.). Following an overnight incubation at 4° C., the plate was blocked with 200 μl Superblock (Pierce #37535, Rockford, Ill.). The IgG samples were diluted to 6 μg/ml in Assay Buffer (10% Superblock in PBS containing 0.05% Surfactamps (Pierce #37535, Rockford, Ill.). The PGE2-biotinamide was diluted to 3 nM in Assay Buffer. A titration curve in Assay Buffer was prepared for the prostaglandins PGA2 (Cayman Chemicals, Ann Arbor, Mich.), PGD2 (Cayman Chemicals, Ann Arbor, Mich.) and PGE2 (Cayman Chemicals, Ann Arbor, Mich.) starting at 300 nM by a 1:10 serial dilution. The reagents were added to tubes at a volume of 50 μl each/tube and preincubated for 1 hour at room temperature. Following the preincubation, the mix was transferred to the blocked plates and allowed to incubate for 1 hour at room temperature. Next, the plates were washed four times with Tween 20-Tris buffered solution (TTBS). Streptavidin polyhrp40 in Assay Buffer (Fitzgerald Industries, Concord, Mass.) at a 1:5000 dilution was then added to the wells and incubated for 45 minutes at room temperature. A final wash step was performed and the plates were developed using a single step TMB system (Sigma #T8665, Sigma, St. Louis, Mo.) and 100 μl/well 2N H2SO4. Plates were read at 450 nm on a Molecular Devices Spectramax plate reader (Sunnyvale, Calif.). […] IC50 number was determined using GraphPad Prism 5 (GraphPad Software, La Jolla, Calif.). The cross reactivity index was then calculated by IC50 of PGE2/IC50 of other prostaglandin(s).
# [2] = Pharmacokinetics of 2B5.8.0 in Balb/C mice; format: in vivo
# Procedure: Pharmacokinetic studies with mouse mAb 2B5.8.0 were carried out in Sprague Dawley rats and Balb/C mice. Male and female rats and mice were dosed intravenously or intraperitoneally (mice only) with a single dose of 4 mg/kg 2B5.8.0 and serum samples were analyzed using antigen capture based chemiluminescent MSD (Meso Scale Discovery) method (Meso Scale Discovery, Gaithersburg, Md.). Pharmacokinetic parameters were calculated by non-compartmental analysis using WinNonlin.
# The following MSD assay was used to measure antibody concentration in rat and mouse serum. MSD streptavidin plates (Meso Scale Discovery, Gaithersburg, Md.) were washed with phosphate buffered saline containing 0.05% Tween-20 (Sigma, St. Louis, Mo.). Plates were blocked with 250 μL/well blocking solution (MSD Block, Meso Scale Discovery, diluted to 3% final concentration in PBS) for 1 hour, covered, with shaking (600 rpm) at room temperature. After washing, 70 μL of biotinylated PGE2 (Prostoglandin E2-biotinamide, Cayman Chemical, Ann Arbor, Mich., cat# 10006987, lot# 190831-191028, 0.01 ug/mL in assay buffer) was added to each well. The plates were covered and incubated with shaking (600 rpm) for 1 hour at room temperature
# Prior to analysis, rat and mouse serum samples were thawed on ice, mixed gently, and centrifuged at 14,000 rpm for 3 minutes at 4° C. in an eppendorf centrifuge. Standard curve and control samples were prepared in rat and mouse serum. A Tecan Evo automated liquid handling station was used to dilute standard curve, high, medium, and low controls, and serum samples in assay buffer, keeping 1% final serum concentration constant. MSD plates were washed again and study samples, standard curve samples and blanks, as well as high, medium, and low controls were added (70 μL/well). The plates were covered, and incubated for 1 hour with shaking (600 rpm) at room temperature.
# After incubation, the MSD plates were washed, and 70 μL of sulfo-tagged goat anti-mouse IgG (Meso Scale Discovery; diluted to 1 ug/mL in assay buffer) was added to each well. The MSD plates were covered, and incubated with shaking (600 rpm) for 1 hour at room temperature, then the plates were washed and developed with 2× Read Buffer (Meso Scale Discovery). Chemilumeniscence was measured within ten minutes on the MSD Sector Imager 6000.
# Standard curves were analyzed using four-parameter logistic fit and sample concentrations were calculated by XLfit4 software version 2.2.1 Build 16, ([…].). Pharmacokinetic parameters were calculated for each animal using Winonlin software version 5.0.1 (Pharsight Corporation, Mountain View, Calif.) by noncompartmental analysis.
# Male and female Balb/c mice (weighing approximately 0.025 kg) were purchased from Charles River Laboratories (Wilmington, Mass.). The animals were allowed food and water ad libitum. Blood samples were collected (0.2 mL from the rats via the tail vein and by cardiac puncture from the mice) at various timepoints (5 mice at each timepoint) allowed to clot for 30 minutes at room temperature, centrifuged for 3 minutes at 13,200 rpm, the serum transferred to eppendorf tubes and stored frozen at −80° C.
# [3] = mice, intraperitoneal, both sexes
molecule,measurement,setting,value
"2B5-8.0: recombinant anti-PGE2 antibody from solved 2B5 sequence; VH SEQ ID NO 42, VL SEQ ID NO 43 (antibody, V domains shown) VH: QVQLQQSGPELVRPGSSVKISCKASGYTFTKYWLGWVKQRPGHGLEWIGDIYPGYDYTHYNEKFKDKATLTVDTSSSTAYMQLSSLTSEDSAIYYCARSDGSSTYWGQGTLVTVSA VL: DVLMTQTPLSLPVSLGDQASISCTSSQNIVHSNGNTYLEWYLQRPGQSPKLLIYKVSNRFSGVPDRFSGSGSGTVFTLKISRVEAEDLGVYYCFQVSHVPYTFGGGTKLEIKR",PG Selectivity in Biotin-PGE2 Competition ELISA (CRI %) PGA2,[1]; PGA2,0.21%
same,PG Selectivity in Biotin-PGE2 Competition ELISA (CRI %) PGD2,[1]; PGD2,<0.01%
same,PG Selectivity in Biotin-PGE2 Competition ELISA (CRI %) PGE1,[1]; PGE1,28%
same,Cmax,[2]; [3],37000 to 49000 ng/mL
same,bioavailability,[2]; [3],65.8-72.0%
same,half-life,[2]; [3],13.8 to 16.1 days
same,AUC0-∞,"[2]; mouse, female, IP 4 mg/kg",16100 µg·h/mL
same,Cmax,"[2]; mouse, female, IP 4 mg/kg",49400 ng/mL
same,F (%),"[2]; mouse, female, IP 4 mg/kg",65.8%
same,MRT,"[2]; mouse, female, IP 4 mg/kg",19.3 days
same,Tmax,"[2]; mouse, female, IP 4 mg/kg",1 days
same,T½,"[2]; mouse, female, IP 4 mg/kg",13.8 days
same,AUC0-∞,"[2]; mouse, female, IV 4 mg/kg",24500 µg·h/mL
same,CL,"[2]; mouse, female, IV 4 mg/kg",3.84 mL/day/kg
same,MRT,"[2]; mouse, female, IV 4 mg/kg",22.8 days
same,T½,"[2]; mouse, female, IV 4 mg/kg",16.2 days
same,Vss,"[2]; mouse, female, IV 4 mg/kg",0.089 L/kg
same,Vz,"[2]; mouse, female, IV 4 mg/kg",0.092 L/kg
same,AUC0-∞,"[2]; mouse, male, IP 4 mg/kg",19400 µg·h/mL
same,Cmax,"[2]; mouse, male, IP 4 mg/kg",37300 ng/mL
same,F (%),"[2]; mouse, male, IP 4 mg/kg",72%
same,MRT,"[2]; mouse, male, IP 4 mg/kg",23.4 days
same,Tmax,"[2]; mouse, male, IP 4 mg/kg",2 days
same,T½,"[2]; mouse, male, IP 4 mg/kg",16.1 days
same,AUC0-∞,"[2]; mouse, male, IV 4 mg/kg",26900 µg·h/mL
same,CL,"[2]; mouse, male, IV 4 mg/kg",3.6 mL/day/kg
same,MRT,"[2]; mouse, male, IV 4 mg/kg",37.5 days
same,T½,"[2]; mouse, male, IV 4 mg/kg",26.3 days
same,Vss,"[2]; mouse, male, IV 4 mg/kg",0.134 L/kg
same,Vz,"[2]; mouse, male, IV 4 mg/kg",0.135 L/kg
